Experimental data from patent US20210380960.

T1: Peptide 5: enriched with aromatic residues
T1 chain: YFLMNENRYTSWNSE

T2: Peptide 7 (random peptide)
T2 chain: GISEQFKTNVLREYA

T3: Peptide 1: enriched in negatively charged residues
T3 chain: EEDEKRRKYTSWNSE

T4: Peptide 4: enriched in glycines
T4 chain: GGGGNENRYTSWNSE

T5: Peptide 2: enriched in hydrophobic residues
T5 chain: LMLLNENRYTSWNSE

B1: PhTET3 (protein)
chain: MDLKGGESMVDWKLMQEIIEAPGVSGYEHLGIRDIVVDVLKEVADEVKVDKLGNVIAHFKGSSPRIMVAAHMDKIGVMVNHIDKDGYLHIVPIGGVLPETLVAQRIRFFTEKGERYGVVGVLPPHLRRGQEDKGSKIDWDQIVVDVGASSKEEAEEMGFRVGTVGEFAPNFTRLNEHRFATPYLDDRICLYAMIEAARQLGDHEADIYIVGSVQEEVGLRGARVASYAINPEVGIAMDVTFAKQPHDKGKIVPELGKGPVMDVGPNINPKLRAFADEVAKKYEIPLQVEPSPRPTGTDANVMQINKEGVATAVLSIPIRYMHSQVELADARDVDNTIKLAKALLEELKPMDFTP
B2: PhTET1 (protein)
chain: MMSMIEKLKKFTQIPGISGYEERIREEIIREIKDFADYKVDAIGNLIVELGEGEERILFMAHMDEIGLLITGITDEGKLRFRKVGGIDDRLLYGRHVNVVTEKGILDGVIGATPPHLSLERDKSVIPWYDLVIDIGAESKEEALELVKPLDFAVFKKHFSVLNGKYVSTRGLDDRFGVVALIEAIKDLVDHELEGKVIFAFTVQEEVGLKGAKFLANHYYPQYAFAIDSFACCSPLTGDVKLGKGPVIRAVDNSAIYSRDLARKVWSIAEKNGIEIQIGVTGGGTDASAFQDRSKTLALSVPIKYLHSEVETLHLNDLEKLVKLIEALAFEL
B3: PhTET4 (protein)
chain: MERIVKILREILEIPSPTGYTKEVMSYLEKFLKENEVNFYYTNKGALIAGNHPKPELVVIAHVDTLGAMVKEILPDGHLAFSRIGGLVLPTFEGEYCTIITRKGKKFRGTLLLRNPSAHVNREVGKKERKEENMYIRLDELVEKREDTEKLGIRPGDFIAFDPKFEYVNGFVKSHFLDDKASVAAILDLIIDMKDELEKYPVAFFFSPYEEVGHGGSAGYPPTTKELLVVDMGVVGEGVSGKETAVSIAAKDTTGPYDYDMTNRLIELAEENNIPYVVDVFPYYGSDGSAALRAGWDFRVALIGPGVHASHGMERTHVKGLLATKELIRAYIKWKG
B4: PhTET2 (protein)
chain: MEVRNMVDYELLKKVVEAPGVSGYEFLGIRDVVIEEIKDYVDEVKVDKLGNVIAHKKGEGPKVMIAAHMDQIGLMVTHIEKNGFLRVAPIGGVDPKTLIAQRFKVWIDKGKFIYGVGASVPPHIQKPEDRKKAPDWDQIFIDIGAESKEEAEDMGVKIGTVITWDGRLERLGKHRFVSIAFDDRIAVYTILEVAKQLKDAKADVYFVATVQEEVGLRGARTSAFGIEPDYGFAIDVTIAADIPGTPEHKQVTHLGKGTAIKIMDRSVICHPTIVRWLEELAKKHEIPYQLEILLGGGTDAGAIHLTKAGVPTGALSVPARYIHSNTEVVDERDVDATVELMTKALENIHELKI
B5: MjTET (protein)
chain: MSVVEYLKKLSKLHGISGREDSVREFMKKELEKYCDSVEIDNFGNLIAKRGNKGKKIMIAAHMDEIGLMVKYIDDNGFLKFTKIGGIYDPTILNQKVVVHGSKGDLIGVLGSKPPHRMKEEEKTKIIKYEDMFIDIGAESREEAIEMGVNIGTWVSFLSEVYDLGKNRLTGKAFDDRVGCAVLLEVMKRLSEEDIDCQVYAVGTVQEEVGLKGARVSAFKINPDVAIALDVTIAGDHPGIKKEDAPVDLGKGPVVGIVDASGRGLIAHPKVLDMIKAVSEKYKIDVQWEVGEGGTTDATAIHLTREGIPTGVISVPARYIHTPVEVIDKRDLEKTVELVYNCIKEVNNFF

Key:
[1] = target: T1, Peptide 5: enriched with aromatic …
[2] = target: T2, Peptide 7 (random peptide)
[3] = target: T3, Peptide 1: enriched in negatively …
[4] = target: T4, Peptide 4: enriched in glycines
[5] = target: T5, Peptide 2: enriched in hydrophobic …

Protein | hydrolysis of the peptide, RP-HPLC after 15 min at 40° C. [1] | hydrolysis of the peptide, RP-HPLC after 15 min at 60° C. [1] | hydrolysis of peptide 7 incorporated into a casein hydrolyzate, RP-HPLC [2] | kinetics of hydrolysis of the peptide, RP-HPLC after 5, 15 and 30 min [2] | other results
B1 | a significant decrease in hydrolysis is observed. In fact, in this case, only the peptide pep-1 is visible and in very small quantity | there is an accumulation of the peptide pep-1 while the intact substrate peptide is no longer present in the medium | the peptide of interest is not very hydrolyzed |  | hydrolysis of the peptide, RP-HPLC after 15 min (PhTET3 alone, 5% experiment) [1]: there is a strong accumulation of the peptide pep-1 after the 15 minutes of incubation of the aminopeptidase with the substrate peptide; hydrolysis of the peptide, RP-HPLC and mass spectrometry [1]: significant accumulation of peptides whose tyrosine at the N-terminal end has been hydrolyzed
B2 |  |  |  |  | hydrolysis of the peptide, RP-HPLC after 15 min [3]: no hydrolysis activity is observed
B3 |  |  | only the peptide of interest is hydrolysed by the aminopeptidase PhTET4 and, this, almost completely | only the hydrolysis of the first glycine residue was observed | hydrolysis of the peptide, RP-HPLC after 15 min [4]: no hydrolysis activity is observed
B4 |  |  |  |  | hydrolysis of the peptide, RP-HPLC after 15 min [5]: the first residues of the peptide were hydrolyzed more quickly in the presence of PhTET3 than in the presence of PhTET2
B5 | all the intermediate peptides are visible as well as the final product pep-4, and there is only a significant slowdown in hydrolysis | part of the intact peptide is still present in the reaction medium, while the residues of the hydrolysis products are present in almost equivalent amounts. There is a slight accumulation of the final hydrolysis product, the peptide pep-4 | the peptide of interest is not very hydrolyzed | we observe, in addition to the peptide pep-1, the peptides pep-2 and pep-3, and what corresponds to pep-4 ... between 15 and 30 min, the concentration of the substrate peptide pep-0 does not seem to have decreased | 
